The values below come from PMC10564799.

For this test, the target named is SFTSV glycoprotein Gc (SFTSV (Dabie bandavirus), strain JA1-2018). Put plainly: cryo-EM structure.

Where “and” joins values, the source holds several entries; their conditions need not be identical. Equal entries are not always repeated.

For orientation: stoichiometry N means the number of molecules, sites or subunits per partner or assembly. Regarding SFTSV glycoprotein Gc (natural protein), the stoichiometry N is 5 and 6.
